Experimental data published in PMC9007600.

Target: tralokinumab half molecule (human)

dissociation half-life: 16.8 h
B1: tralokinumab half molecule (antibody, V domains shown)
VH: QVQLVQSGAEVKKPGASVKVSCKASGYTFTNYGLSWVRQAPGQGLEWMGWISANNGDTNYGQEFQGRVTMTTDTSTSTAYMELRSLRSDDTAVYYCARDSSSSWARWFFDLWGRGTLVTVSS
VL: SYVLTQPPSVSVAPGKTARITCGGNIIGSKLVHWYQQKPGQAPVLVIYDDGDRPSGIPERFSGSNSGNTATLTISRVEAGDEADYYCQVWDTGSDPVVFGGGTKLTVL
